Measurements: US20160032297, “METHODS FOR THE IDENTIFICATION OF VARIANT RECOGNITION SITES FOR RARE-CUTTING ENGINEERED DOUBLE-STRAND-BREAK-INDUCING AGENTS AND COMPOSITIONS AND USES THEREOF” (E.I. DU PONT DE NEMOURS AND COMPANY, published 2016)

Target: T1, MHP14+ meganuclease (single-chain engineered I-CreI) (artificial)
T1 chain: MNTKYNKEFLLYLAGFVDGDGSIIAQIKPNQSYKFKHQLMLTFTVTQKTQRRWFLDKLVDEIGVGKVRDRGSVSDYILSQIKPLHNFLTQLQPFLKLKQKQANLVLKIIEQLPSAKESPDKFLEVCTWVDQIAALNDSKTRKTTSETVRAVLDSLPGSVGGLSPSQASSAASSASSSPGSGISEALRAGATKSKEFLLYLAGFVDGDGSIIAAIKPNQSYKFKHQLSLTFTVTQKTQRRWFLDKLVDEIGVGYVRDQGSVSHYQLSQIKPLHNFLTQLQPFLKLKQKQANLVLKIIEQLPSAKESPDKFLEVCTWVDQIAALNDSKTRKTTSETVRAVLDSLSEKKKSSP
Test: cleavage_in_vitro; depends on reaction temperature
Conditions: tags: expressed from pQE80 in E. coli, Ni-NTA purified
Experimental: To generate material for the capture of genomic variant recognition sites, in vitro assays were carried out with 114 nM of purified meganuclease protein isolated as described in Example 2 and 6.07 μg of purified maize genomic DNA at 32° C. for 80 minutes in a final volume of 80 μl in the presence of digestion buffer (50 mM Tris-HCl (pH 7.9), 100 mM NaCl, 10 mM MgCl₂, 1 mM DTT, […]). After 80 minutes, the entire reaction was stopped with an equal volume of stop buffer (100 mM Tris-HCl (pH 8.0), 600 mM NaCl, 2% SDS, 100 mM EDTA, 1 mg of proteinase K per ml) and incubated at 50° C. for 30-45 minutes. Stopped reactions were purified by phenol/chloroform extraction and ethanol precipitated in the presence of 0.2 M NaCl. Precipitated genomic DNA was washed twice with 70% ethanol, dried, and resuspended in 34 μl of water. […]

B1: MHP14+ maize genomic variant site (dsDNA)
DNA 1: CAAGAAGAAGCACGTCAGCTTA
DNA 2: TAAGCTGACGTGCTTCTTCTTG
  relative cleavage activity: ~3 fold vs intended site
